{"source": "patent US20250129146A1", "about": "“COMBINED CANCER THERAPY WITH AN EPITHELIAL CELL ADHESION MOLECULE (EPCAM) INHIBITOR AND A WNT INHIBITOR” (ACADEMIA SINICA, priority 2021, published 2025)", "molecules": {"B1": {"name": "EpAb2-6: anti-EpCAM (EpEX) neutralizing monoclonal antibody produced in mice by hybridoma; VH SEQ ID NO: 15, VL SEQ ID NO: 16 (antibody, V domains shown)", "VH": "VKLQESGPELKKPGETVKISCKASGYTFTDYSMHWVKQAPGKGLKWMGWINTETGEPTYADDFKGRFAFSLETSASTAYLQINNLKNEDTATYFCARTAVYWGQGTTVTVSS", "VL": "DIQMTQSPSSLSASLGERVSLTCRASQEISVSLSWLQQEPDGTIKRLIYATSTLDSGVPKRFSGSRSGSDYSLTISSLESEDFVDYYCLQYASYPWTFGGGTKLEIK"}, "B2": {"name": "EpEX: extracellular domain of EpCAM, produced in house by Expi293 Expression System (protein)", "chain": "QEECVCENYKLAVNCFVNNNRQCQCTSVGAQNTVICSKLAAKCLVMKAEMNGSKLGRRAKPEGALQNNDGLYDPDCDESGLFKAKQCNGTSMCWCVNTAGVRRTDKDTEITCSERVRTYWIIIELKHKAREKPYDSKSLRTALQKEITTRYQLDPKFITSILYENNVITIDLVQNSSQKTQNDVDIADVAYYFEKDVKGESLFHSKKMDLTVNGEQLDLDPGQTLIYYVDEKAPEFSMQGLKAGVIAVIVVVVIAVVAGIVVLVISRKKRMAKYEKAEIKEMGEMHRELNA"}, "B3": {"name": "Wnt3A: recombinant Wnt3A (R & D systems) (protein, UniProt P56704 19-352, looked up)", "Protein Wnt-3a": "SYPIWWSLAVGPQYSSLGSQPILCASIPGLVPKQLRFCRNYVEIMPSVAEGIKIGIQECQHQFRGRRWNCTTVHDSLAIFGPVLDKATRESAFVHAIASAGVAFAVTRSCAEGTAAICGCSSRHQGSPGKGWKWGGCSEDIEFGGMVSREFADARENRPDARSAMNRHNNEAGRQAIASHMHLKCKCHGLSGSCEVKTCWWSQPDFRAIGDFLKDKYDSASEMVVEKHRESRGWVETLRPRYTYFKVPTERDLVYYEASPNFCEPNPETGSFGTRDRTCNVSSHGIDGCDLLCCGRGHNARAERRREKCRCVFHWCCYVSCQECTRVYDVHTCK"}}, "key": {"[1]": {"system": "colon cancer cells (SW620, HCT116)", "conditions": "general description of other anti-EpCAM antibodies; cited from earlier work"}, "EpCAM [2]": {"target": "T1, EpCAM (Homo sapiens, UniProt P16422)", "T1 construct": "HEK293T cells were transfected with full length or EGF like-domain deletion mutant EpCAM-V5; V5; expressed in transfected cells; host or cells: HEK293T", "T1 sequence (P16422 24-314)": "B2 chain", "conditions": "general description of other anti-EpCAM antibodies; cited from earlier work"}, "HCT116 cells [3]": {"system": "HCT116 cells", "assay": "Metastatic animal model of human CRC (HCT116 cells via tail vein)", "assay_type": "in vivo, NOD/SCID mice", "method": "(§1) All animal experiments were approved and performed according to the regulations from the IACUC at Academia Sinica. HCT116 cells (1×10^6) were injected via tail vein for the metastatic model. Otherwise, 2×10^5 HCT116 cells with luciferase were surgically transplanted into the cecum wall for the orthotopic model. Male NOD/SCID mice, approximately 6 to 8 weeks old, were used for animal experiments (n=5 and n=6 for each treatment group in metastatic and orthotopic models respectively). At 72-h post-injection/transplantation, mice were randomly distributed into four different treatment groups. For the treatments, animals were injected with 20 mg/kg IgG or EpAb2-6 via tail vein twice a week for four weeks, or fed by oral gavage with either vehicle [0.5% methylcellulose (Sigma-Aldrich) and 0.5% Tween80 (Sigma-Aldrich)] or 5 mg/kg LGK974 (MedChemExpress) formulated with the vehicle on alternating days for four weeks, or animals were treated with the combination of both inhibitor and antibody. For the metastatic model, survival was the main endpoint. For the orthotopic model, tumor progression was monitor using bioluminescence imaging. To image the tumors, intraperitoneal injection of D-Luciferin (GOLD BIO) was performed, and images were taken 10 min post-injection."}, "HCT116 cells [4]": {"system": "HCT116 cells", "assay": "Orthotopic animal model of human CRC (HCT116 cells with luciferase in cecum wall)", "assay_type": "in vivo, NOD/SCID mice", "conditions": "orthotopic model", "method": "as §1"}, "EpCAM [5]": {"target": "T1, EpCAM", "assay": "Antibody binding to EpCAM wild-type, deletion and point mutants in HEK293T cells (immunofluorescence, flow cytometry, cellular ELISA)", "conditions": "EGF-like domain deletion and point mutants", "method": "FIGS. 18A to 18G. […] HEK293T cells were transfected with full length or EGF like-domain deletion mutant EpCAM-V5. Antibody binding was assessed by (FIG. 8A) Western blotting, (FIG. 8B) flow cytometry, and (FIG. 8C) immunofluorescence. (FIG. 8D) EpCAM mutants were constructed with amino acid substitutions in the EGF-I (Y32A) and EGF-II (L94A, Y95A, or D96A) domains. EpCAM wild-type and mutant proteins were expressed in HEK293T cells. Binding of MT201, EpAb2-6 and EpAb23-1 to EpCAM wild-type and mutants were evaluated by (FIG. 8E) immunofluorescence, (FIG. 8F) flow cytometry, and (FIG. 8G) cellular ELISA. All data are presented as mean±SEM. *, p<0.05; **, p<0.01.\nHere, we wanted to determine whether the antibody binds to EpCAM at both EGF-like domains of EpEX (FIG. 18A, FIG. 18B, FIG. 18C). To confirm that EpAb2-6 recognizes the LYD motif in EpCAM, we constructed cDNA sequences encoding the first (aa 27-59; EGF-I domain) and second (aa 66-135; EGF-II/TY domain) EGF-like repeats of EpCAM. PCR-based site-directed mutagenesis was then used to introduce mutations into each domain (FIG. 18D). The reactivity of EpAb2-6 antibody toward these EpCAM mutants was evaluated by immunofluorescence (FIG. 18E), flow cytometry (FIG. 18F), and cellular ELISA (FIG. 18G)."}, "recombinant LRP6": {"target": "T2, recombinant LRP6 (Homo sapiens, UniProt O75581)", "T2 construct": "purchased Proteintech", "T2 sequence (O75581 20-1613)": "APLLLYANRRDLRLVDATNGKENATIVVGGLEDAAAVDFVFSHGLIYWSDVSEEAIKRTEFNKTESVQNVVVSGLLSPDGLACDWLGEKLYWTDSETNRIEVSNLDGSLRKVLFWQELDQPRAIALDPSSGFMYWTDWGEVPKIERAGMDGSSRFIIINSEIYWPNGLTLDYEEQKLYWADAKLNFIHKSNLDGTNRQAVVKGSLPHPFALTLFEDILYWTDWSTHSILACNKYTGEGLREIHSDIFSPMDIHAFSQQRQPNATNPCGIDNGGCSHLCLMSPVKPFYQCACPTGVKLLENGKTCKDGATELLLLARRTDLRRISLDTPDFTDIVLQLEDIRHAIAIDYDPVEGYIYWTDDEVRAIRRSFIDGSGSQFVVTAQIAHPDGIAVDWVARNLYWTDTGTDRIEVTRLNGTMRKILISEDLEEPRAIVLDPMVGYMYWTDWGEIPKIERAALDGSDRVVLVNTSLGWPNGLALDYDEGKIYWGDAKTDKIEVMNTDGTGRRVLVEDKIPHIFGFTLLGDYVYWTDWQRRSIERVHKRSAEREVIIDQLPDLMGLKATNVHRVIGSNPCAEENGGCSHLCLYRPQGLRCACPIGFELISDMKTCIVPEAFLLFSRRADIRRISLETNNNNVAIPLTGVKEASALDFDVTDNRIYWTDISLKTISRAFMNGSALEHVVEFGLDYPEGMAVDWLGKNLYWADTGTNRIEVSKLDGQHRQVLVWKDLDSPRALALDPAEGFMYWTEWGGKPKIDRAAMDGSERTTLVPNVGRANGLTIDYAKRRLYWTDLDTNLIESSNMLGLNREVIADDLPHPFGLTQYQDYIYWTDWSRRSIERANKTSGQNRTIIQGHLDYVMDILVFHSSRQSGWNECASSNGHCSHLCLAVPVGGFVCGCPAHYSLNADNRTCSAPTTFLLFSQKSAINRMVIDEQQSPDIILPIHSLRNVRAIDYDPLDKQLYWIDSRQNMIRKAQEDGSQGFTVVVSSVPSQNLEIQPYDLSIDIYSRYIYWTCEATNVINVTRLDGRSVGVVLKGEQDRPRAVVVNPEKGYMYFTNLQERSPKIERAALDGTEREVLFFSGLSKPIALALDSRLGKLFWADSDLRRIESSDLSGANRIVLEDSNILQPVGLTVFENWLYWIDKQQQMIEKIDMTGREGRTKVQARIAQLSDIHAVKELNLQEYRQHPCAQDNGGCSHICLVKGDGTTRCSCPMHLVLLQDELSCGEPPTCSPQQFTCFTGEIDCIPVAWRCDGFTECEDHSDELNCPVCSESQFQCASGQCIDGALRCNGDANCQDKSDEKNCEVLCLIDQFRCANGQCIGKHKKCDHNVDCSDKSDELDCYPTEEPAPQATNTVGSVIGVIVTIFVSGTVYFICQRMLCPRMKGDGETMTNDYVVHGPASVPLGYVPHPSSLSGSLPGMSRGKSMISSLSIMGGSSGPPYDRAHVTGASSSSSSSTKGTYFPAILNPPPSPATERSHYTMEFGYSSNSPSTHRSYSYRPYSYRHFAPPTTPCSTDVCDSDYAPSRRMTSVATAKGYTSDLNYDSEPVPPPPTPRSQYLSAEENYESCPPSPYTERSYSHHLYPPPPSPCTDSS", "assay": "ELISA of EpEX binding to Wnt receptor-coated plates (LRP6)", "conditions": "EpEX-His alone, 2 hours; optical density at 450 nm", "method": "For ELISA, wells (at least 6 wells per single protein) were coated with recombinant FZD6 (Proteintech), recombinant FZD7 (Proteintech), recombinant LRP5 (Proteintech), recombinant LRP6 (Proteintech) overnight at 4° C. The wells were then blocked with 1% BSA and treated with EpEX-his (Produced in house by Expi293 Expression System) for 2 hours. Otherwise, EpEX-His was incubated with EpAb2-6 overnight and the complex was used to treat the protein-coated plates for 2 hours. Further anti-His antibody (abeam) was used and TMB was performed to record optical density at 450 nm."}, "TACE": {"system": "TACE", "assay": "TACE activity assay", "assay_type": "cell-based, human", "conditions": "HCT116 and HT29 cells; 250 ng/mL EpEX-His or 100 ng/mL Wnt3A for 8 h, or combination", "method": "Cells were seeded overnight in 24-well plate ([…] cells per well) and further treated with 250 ng/mL EpEX-His or 100 ng/mL Wnt3A (R&D Systems) for 8 h. Then, TACE activity was measured using the InnoZyme TACE activity kit (Merck). In brief, cell lysates were prepared with RIPA buffer and loaded into a TACE antibody-coated plate and incubated at RT for 1 h with slight shaking. Further, the lysates were removed and the plate was washed three times. Substrate was added into each well and incubated for 5 h at 37° C. Finally, the fluorescence signal of the reaction product was detected at excitation of 324 nm and emission of 405 nm using a microplate reader."}, "[6]": {"conditions": "20 mg/kg EpAb2-6 via tail vein twice a week, 5 mg/kg LGK974 oral gavage on alternating days, four weeks"}}, "note": "“Also recorded” adds a separate entry of the source. Like-named read-outs stand apart in the source and are kept apart here."}
{"molecule": "MT201: adecatumumab, a human anti-EpCAM antibody that was subjected to clinical trials [reference compound]", "values": [{"measurement": "inducing apoptosis of cancer cells", "setting": "[1]", "result": "failing"}, {"measurement": "EpCAM domains bound", "setting": "EpCAM [2]", "result": "target only the well-described EGF I domain of EpCAM; also recorded: binding to domain I only"}]}
{"molecule": "B1", "values": [{"measurement": "animal survival", "setting": "HCT116 cells [3]; [6]", "result": "can prolong animal survival; also recorded: could prolong animal survival"}, {"measurement": "mice died by the end of the study", "setting": "HCT116 cells [3]; n=5 per group", "result": "2 out of 5"}, {"measurement": "median / overall survival", "setting": "HCT116 cells [4]", "result": "relatively higher median survival"}, {"measurement": "tumor progression (bioluminescence)", "setting": "HCT116 cells [4]; [6]", "result": "much slower tumor progression"}, {"measurement": "EpCAM domains bound", "setting": "EpCAM [5]", "result": "binds to the EGF-I and EGF-II domains of EpEX; also recorded: binds to both EGF-like domain I and II of EpCAM"}]}
{"molecule": "B2", "values": [{"measurement": "EpEX binding to LRP6", "setting": "recombinant LRP6", "result": "bind with all receptor proteins"}, {"measurement": "TACE activity", "setting": "TACE", "result": "enhanced"}]}
{"molecule": "B3", "values": [{"measurement": "TACE activity", "setting": "TACE", "result": "enhanced"}]}
